We go through three molecules from publication PMC2174231 (The Journal of Cell Biology, 1999).

For this experiment, the target named is T1, PML wild-type fused to GAL4-DBD (UniProt P29590 1-882).
T1 sequence: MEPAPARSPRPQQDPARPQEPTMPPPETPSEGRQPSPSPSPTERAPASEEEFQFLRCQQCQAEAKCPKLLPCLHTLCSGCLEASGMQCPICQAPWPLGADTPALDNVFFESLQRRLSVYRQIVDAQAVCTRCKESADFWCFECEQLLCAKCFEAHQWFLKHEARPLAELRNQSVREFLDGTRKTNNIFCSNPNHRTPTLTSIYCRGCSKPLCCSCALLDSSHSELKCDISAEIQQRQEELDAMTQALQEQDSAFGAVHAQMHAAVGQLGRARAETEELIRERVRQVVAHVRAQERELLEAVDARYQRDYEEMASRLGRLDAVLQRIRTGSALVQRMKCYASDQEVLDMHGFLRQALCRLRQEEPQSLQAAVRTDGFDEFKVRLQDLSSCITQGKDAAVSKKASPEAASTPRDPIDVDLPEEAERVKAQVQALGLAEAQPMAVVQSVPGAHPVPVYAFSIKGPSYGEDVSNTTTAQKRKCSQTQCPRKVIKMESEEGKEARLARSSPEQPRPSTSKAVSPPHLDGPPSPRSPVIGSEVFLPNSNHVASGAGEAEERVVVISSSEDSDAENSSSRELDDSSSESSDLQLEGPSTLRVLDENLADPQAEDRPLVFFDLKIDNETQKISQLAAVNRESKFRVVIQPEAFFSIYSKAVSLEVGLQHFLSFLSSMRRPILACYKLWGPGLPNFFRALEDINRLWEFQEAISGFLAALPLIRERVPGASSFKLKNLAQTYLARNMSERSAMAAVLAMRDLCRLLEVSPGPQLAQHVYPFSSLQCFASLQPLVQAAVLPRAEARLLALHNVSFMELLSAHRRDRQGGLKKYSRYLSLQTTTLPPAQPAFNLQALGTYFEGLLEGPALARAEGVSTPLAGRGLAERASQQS
Put plainly: two-hybrid.

B1: Daxx amino acids 433-740 fused to NLS-VP16 (domain or fragment)
chain: AETDDEDDEESDEEEEEEEEEEEEEATDSEEEEDLEQMQEGQEDDEEEDEEEEAAAGKDGDKSPMSSLQISNEKNLEPGKQISRSSGEQQNKGRIVSPSLLSEEPLAPSSIDAESNGEQPEELTLEEESPVSQLFELEIEALPLDTPSSVETDISSSRKQSEEPFTTVLENGAGMVSSTSFNGGVSPHNWGDSGPPCKKSRKEKKQTGSGPLGNSYVERQRSVHEKNGKKICTLPSPPSPLASLAPVADSSTRVDSPSHGLVTSSLCIPSPARLSQTPHSQPPRPGTCKTSVATQCDPEEIIVLSDSD
Turning to B1, the “fold weaker interaction (β-galactosidase) against Daxx 488-740” value was roughly 20 fold weaker.

B2: Daxx amino acids 488-740 fused to NLS-VP16 (domain or fragment)
chain: AGKDGDKSPMSSLQISNEKNLEPGKQISRSSGEQQNKGRIVSPSLLSEEPLAPSSIDAESNGEQPEELTLEEESPVSQLFELEIEALPLDTPSSVETDISSSRKQSEEPFTTVLENGAGMVSSTSFNGGVSPHNWGDSGPPCKKSRKEKKQTGSGPLGNSYVERQRSVHEKNGKKICTLPSPPSPLASLAPVADSSTRVDSPSHGLVTSSLCIPSPARLSQTPHSQPPRPGTCKTSVATQCDPEEIIVLSDSD
On to B2, for which the “fold strength of interaction (β-galactosidase) against full-length Daxx” value is roughly 3 fold.

B3: Daxx amino acids 625-740 fused to NLS-VP16 (domain or fragment)
chain: SGPPCKKSRKEKKQTGSGPLGNSYVERQRSVHEKNGKKICTLPSPPSPLASLAPVADSSTRVDSPSHGLVTSSLCIPSPARLSQTPHSQPPRPGTCKTSVATQCDPEEIIVLSDSD
B3: the “fold strength of interaction (β-galactosidase) against full-length Daxx” value was roughly 3 fold.
